Our source for the stoichiometry N values is publication PMC7719794.

This test has as its target chicken CD8αα homodimer (chicken). Briefly: crystal structure; sitting-drop vapour diffusion at 291 K, 10 mg/ml; cCD8αα and pMHC-I mixed at a 2:1 molar ratio at 277 K overnight; three crystals: pBF2*1501, cCD8αα/pBF2*1501, cCD8αα/pBF2*0401; two complexes (A and B) in the asymmetric unit of each co-crystal.

On to chicken CD8αα homodimer (receptor), for which the stoichiometry N turned out to be 2.
